From paper PMC6077723 (Proceedings of the National Academy of Sciences of the …, 2018)

B1: N-terminal domain of HIGD1A (HIGD1A 1-26) (domain or fragment, human, UniProt Q9Y241 1-26, looked up)
chain: MSTDTGVSLPSYEEDQGSKLIRKAKE

Columns and labels:
[1] = biological target: MBP-HIGD1A chimera (hypoxia-inducible domain family member 1A with an N-terminal maltose binding protein tag) (human) (UniProt Q9Y241); experiment: ITC
[2] = biological target: wild-type cytochrome c (human, UniProt P99999 1-105); experiment: ITC
wild-type cytochrome c, sequence (P99999 whole entry): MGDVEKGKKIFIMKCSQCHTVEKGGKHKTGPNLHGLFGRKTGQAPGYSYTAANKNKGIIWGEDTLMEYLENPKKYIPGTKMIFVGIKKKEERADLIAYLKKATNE

Molecule	stoichiometry N [1]	binding result [2]
Y97pCMF cytochrome c (phosphomimetic mutant) (from UniProt P99999 1-105) (natural protein)	1	–
B1	–	binds
